B1: BRASSINOSTEROID … 1-associated receptor kinase 1 (Arabidopsis thaliana (Mouse-ear cress)), Q94F62 (parent)
chain: MERRLMIPCFFWLILVLDLVLRVSGNAEGDALSALKNSLADPNKVLQSWDATLVTPCTWFHVTCNSDNSVTRVDLGNANLSGQLVMQLGQLPNLQYLELYSNNITGTIPEQLGNLTELVSLDLYLNNLSGPIPSTLGRLKKLRFLRLNNNSLSGEIPRSLTAVLTLQVLDLSNNPLTGDIPVNGSFSLFTPISFANTKLTPLPASPPPPISPTPPSPAGSNRITGAIAGGVAAGAALLFAVPAIALAWWRRKKPQDHFFDVPAEEDPEVHLGQLKRFSLRELQVASDNFSNKNILGRGGFGKVYKGRLADGTLVAVKRLKEERTQGGELQFQTEVEMISMAVHRNLLRLRGFCMTPTERLLVYPYMANGSVASCLRERPESQPPLDWPKRQRIALGSARGLAYLHDHCDPKIIHRDVKAANILLDEEFEAVVGDFGLAKLMDYKDTHVTTAVRGTIGHIAPEYLSTGKSSEKTDVFGYGVMLLELITGQRAFDLARLANDDDVMLLDWVKGLLKEKKLEALVDVDLQGNYKDEEVEQLIQVALLCTQSSPMERPKMSEVVRMLEGDGLAERWEEWQKEEMFRQDFNYPTHHPAVSGWIIGDSTSQIENEYPSGPR
B2: A-type flagellin (Pseudomonas aeruginosa), P21184 (parent)
chain: MALTVNTNIASLNTQRNLNNSSASLNTSLQRLSTGSRINSAKDDAAGLQIANRLTSQVNGLNVATKNANDGISLAQTAEGALQQSTNILQRMRDLSLQSANGSNSDSERTALNGEVKQLQKELDRISNTTTFGGRKLLDGSFGVASFQVGSAANEIISVGIDEMSAESLNGTYFKADGGGAVTAATASGTVDIAIGITGGSAVNVKVDMKGNETAEQAAAKIAAAVNDANVGIGAFSDGDTISYVSKAGKDGSGAITSAVSGVVIADTGSTGVGTAAGVTPSATAFAKTNDTVAKIDISTAKGAQSAVLVIDEAIKQIDAQRADLGAVQNRFDNTINNLKNIGENVSAARGRIEDTDFAAETANLTKNQVLQQAGTAILAQANQLPQSVLSLLR

Variants of: B1
Details: with flica_pseai fliC

Row | Variant | effect of a mutation on the interaction
1 | Y96A | decreasing interaction strength
2 | L53A | decreasing interaction strength
3 | V54Y | decreasing interaction strength
4 | F60A;F144A | disrupting interaction strength

Variants of: B1
Details: with fls2_arath FLS2, Q9FL28
Target sequence in this assay (Q9FL28 whole entry): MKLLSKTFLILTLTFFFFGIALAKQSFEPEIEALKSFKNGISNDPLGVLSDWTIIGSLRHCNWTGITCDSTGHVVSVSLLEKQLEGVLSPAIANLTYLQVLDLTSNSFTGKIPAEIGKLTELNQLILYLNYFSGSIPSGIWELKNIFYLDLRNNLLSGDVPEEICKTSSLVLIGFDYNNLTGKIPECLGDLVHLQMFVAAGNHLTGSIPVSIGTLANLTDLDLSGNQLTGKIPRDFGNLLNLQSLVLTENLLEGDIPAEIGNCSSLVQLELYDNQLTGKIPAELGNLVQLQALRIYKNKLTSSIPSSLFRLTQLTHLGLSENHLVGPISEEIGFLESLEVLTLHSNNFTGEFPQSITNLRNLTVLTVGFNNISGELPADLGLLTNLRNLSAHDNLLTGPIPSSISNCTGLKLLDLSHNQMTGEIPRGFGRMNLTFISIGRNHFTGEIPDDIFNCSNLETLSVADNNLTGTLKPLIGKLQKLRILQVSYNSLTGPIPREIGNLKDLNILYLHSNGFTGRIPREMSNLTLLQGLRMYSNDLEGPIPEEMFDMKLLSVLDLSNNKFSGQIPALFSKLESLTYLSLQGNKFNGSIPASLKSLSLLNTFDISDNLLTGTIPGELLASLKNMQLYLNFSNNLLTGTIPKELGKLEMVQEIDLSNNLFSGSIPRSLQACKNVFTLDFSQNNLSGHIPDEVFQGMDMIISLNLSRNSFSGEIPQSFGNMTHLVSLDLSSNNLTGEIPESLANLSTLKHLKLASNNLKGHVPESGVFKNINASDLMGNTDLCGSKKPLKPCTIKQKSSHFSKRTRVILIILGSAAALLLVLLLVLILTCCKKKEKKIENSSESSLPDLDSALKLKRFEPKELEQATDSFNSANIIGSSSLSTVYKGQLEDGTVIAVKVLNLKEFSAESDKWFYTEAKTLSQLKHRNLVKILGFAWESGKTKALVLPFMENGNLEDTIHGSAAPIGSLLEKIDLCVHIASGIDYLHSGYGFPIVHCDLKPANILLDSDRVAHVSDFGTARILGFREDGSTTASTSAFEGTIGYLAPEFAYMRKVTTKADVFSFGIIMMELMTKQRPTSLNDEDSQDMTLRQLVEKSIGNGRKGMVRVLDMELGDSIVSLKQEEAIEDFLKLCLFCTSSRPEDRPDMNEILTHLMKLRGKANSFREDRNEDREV

Row | Variant | effect of a mutation on the interaction
5 | Y96A | disrupting interaction strength
6 | L53A | disrupting interaction strength
7 | V54Y | disrupting interaction strength
8 | F60A;F144A | disrupting interaction strength

Variants of: B2
Details: with fls2_arath FLS2, Q9FL28
Target sequence in this assay (Q9FL28 whole entry): as above

Row | Variant | effect of a mutation on the interaction
9 | MALTVNTNIASLNTQRNLNNSSASLNTSLQRLSTGSRINSAKDDAYGLQIANRLTSQVNGLNVATKNANDGISLAQTAEGALQQSTNILQRMRDLSLQSANGSNSDSERTALNGEVKQLQKELDRISNTTTFGGRKLLDGSFGVASFQVGSAANEIISVGIDEMSAESLNGTYFKADGGGAVTAATASGTVDIAIGITGGSAVNVKVDMKGNETAEQAAAKIAAAVNDANVGIGAFSDGDTISYVSKAGKDGSGAITSAVSGVVIADTGSTGVGTAAGVTPSATAFAKTNDTVAKIDISTAKGAQSAVLVIDEAIKQIDAQRADLGAVQNRFDNTINNLKNIGENVSAARGRIEDTDFAAETANLTKNQVLQQAGTAILAQANQLPQSVLSLLR [A46Y] | decreasing interaction strength
10 | MALTVNTNIASLNTQRNLNNSSASLNTSLQRLSTGSRINSAKDAAAGLQIANRLTSQVNGLNVATKNANDGISLAQTAEGALQQSTNILQRMRDLSLQSANGSNSDSERTALNGEVKQLQKELDRISNTTTFGGRKLLDGSFGVASFQVGSAANEIISVGIDEMSAESLNGTYFKADGGGAVTAATASGTVDIAIGITGGSAVNVKVDMKGNETAEQAAAKIAAAVNDANVGIGAFSDGDTISYVSKAGKDGSGAITSAVSGVVIADTGSTGVGTAAGVTPSATAFAKTNDTVAKIDISTAKGAQSAVLVIDEAIKQIDAQRADLGAVQNRFDNTINNLKNIGENVSAARGRIEDTDFAAETANLTKNQVLQQAGTAILAQANQLPQSVLSLLR [D44A] | disrupting interaction strength
11 | MALTVNTNIASLNTQRNLNNSSASLNTSLQRLSTGSRINSAKADAAGLQIANRLTSQVNGLNVATKNANDGISLAQTAEGALQQSTNILQRMRDLSLQSANGSNSDSERTALNGEVKQLQKELDRISNTTTFGGRKLLDGSFGVASFQVGSAANEIISVGIDEMSAESLNGTYFKADGGGAVTAATASGTVDIAIGITGGSAVNVKVDMKGNETAEQAAAKIAAAVNDANVGIGAFSDGDTISYVSKAGKDGSGAITSAVSGVVIADTGSTGVGTAAGVTPSATAFAKTNDTVAKIDISTAKGAQSAVLVIDEAIKQIDAQRADLGAVQNRFDNTINNLKNIGENVSAARGRIEDTDFAAETANLTKNQVLQQAGTAILAQANQLPQSVLSLLR [D43A] | disrupting interaction strength

Variants of: B2
Details: with bak1_arath BAK1, Q94F62

Row | Variant | effect of a mutation on the interaction
12 | MALTVNTNIASLNTQRNLNNSSASLNTSLQRLSTGSRINSAKDDAAALQIANRLTSQVNGLNVATKNANDGISLAQTAEGALQQSTNILQRMRDLSLQSANGSNSDSERTALNGEVKQLQKELDRISNTTTFGGRKLLDGSFGVASFQVGSAANEIISVGIDEMSAESLNGTYFKADGGGAVTAATASGTVDIAIGITGGSAVNVKVDMKGNETAEQAAAKIAAAVNDANVGIGAFSDGDTISYVSKAGKDGSGAITSAVSGVVIADTGSTGVGTAAGVTPSATAFAKTNDTVAKIDISTAKGAQSAVLVIDEAIKQIDAQRADLGAVQNRFDNTINNLKNIGENVSAARGRIEDTDFAAETANLTKNQVLQQAGTAILAQANQLPQSVLSLLR [G47A] | decreasing interaction strength
13 | MALTVNTNIASLNTQRNLNNSSASLNTSLQRLSTGSRINSAKDDAAYLQIANRLTSQVNGLNVATKNANDGISLAQTAEGALQQSTNILQRMRDLSLQSANGSNSDSERTALNGEVKQLQKELDRISNTTTFGGRKLLDGSFGVASFQVGSAANEIISVGIDEMSAESLNGTYFKADGGGAVTAATASGTVDIAIGITGGSAVNVKVDMKGNETAEQAAAKIAAAVNDANVGIGAFSDGDTISYVSKAGKDGSGAITSAVSGVVIADTGSTGVGTAAGVTPSATAFAKTNDTVAKIDISTAKGAQSAVLVIDEAIKQIDAQRADLGAVQNRFDNTINNLKNIGENVSAARGRIEDTDFAAETANLTKNQVLQQAGTAILAQANQLPQSVLSLLR [G47Y] | disrupting interaction strength

From IntAct's records for PubMed 24114786
